Source: patent publication US20220403031A1 (WUXI BIOLOGICS IRELAND, published 2022)

Legend:
[1] = biological target: T1, mouse PD-L1 on 293F cells (W315-293F.mPro1.C1) (mouse, UniProt Q9EP73 19-290); experiment: FACS affinity on mouse PD-L1 cells, quantitative beads
T1 construct: whole, on cells; also called cell surface mouse PD-L1; Mouse PD-L1-expressing 293F cell
Method: (§1) Binding affinities of testing antibodies to cell surface human, cynomolgus and mouse PD-L1 were determined by flow cytometry on the engineering cell lines, respectively. The cells were transferred in to 96-well U-bottom plates (BD) at a density of 5×10⁴ cells/well. Antibodies to be tested were 1: 2-fold serially diluted in 1% BSA/1×PBS and incubated with cells at 4° C. for 1 hr. Then, the plates were centrifuged at 1500 rpm for 4 mins and the supernatant was discarded. The secondary antibody, Alexa647 conjugated goat anti-human IgG Fc (Jackson, Cat No. 109-605-098, Lot No. 121363), was added to re-suspend cells and incubated at 4° C. in the dark for 30 min. The cells were washed once and re-suspended in 100 μL 1% BSA/1×PBS, then measured by flow cytometry (BD Canto II) and analyzed by FlowJo. Fluorescence intensity was converted to bound molecules/cell based on the quantitative beads (Quantum™ MESF Kits, Bangs Laboratories). KD value was calculated by Graphpad Prism5.

[2] = biological target: T2, human PD-L1 on CHO-K1 cells (W315-CHO-K1.hPro1.C11) (human, UniProt Q9NZQ7 19-290); experiment: FACS competition: antibody titrated against 5 ug/mL human PD-1 ECD mFc on human PD-L1 CHO-K1 cells
T2 construct: whole, on cells; also called cell surface human PD-L1; Human PD-L1-expressing CHO-K1 cell
T2 sequence (Q9NZQ7 19-290): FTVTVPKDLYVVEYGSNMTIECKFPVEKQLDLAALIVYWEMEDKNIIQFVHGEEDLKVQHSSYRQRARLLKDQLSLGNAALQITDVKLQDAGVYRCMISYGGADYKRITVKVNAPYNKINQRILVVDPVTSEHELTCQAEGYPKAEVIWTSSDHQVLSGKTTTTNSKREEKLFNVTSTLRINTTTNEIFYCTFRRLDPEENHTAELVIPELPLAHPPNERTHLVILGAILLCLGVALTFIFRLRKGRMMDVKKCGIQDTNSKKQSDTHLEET
Method: (§2) Human PD-L1 transfected W315-CHO-K1.hPro1.C11 cells were transferred into 96-well U-bottom plates at a density of 1×10⁵ cells/well. […] After washing with 1×PBS/1% BSA, the secondary antibody PE-labeled goat anti-mouse IgG was applied and incubated with cells at 4° C. for 1 hour. […] Human IgG1 and IgG4 isotype antibodies were used as negative control. The cells were then washed and resuspended in 1×PBS/1% BSA. MFI of the cells was measured by a flow cytometer (BD) and analyzed by FlowJo (version 7.6.1).

[3] = biological target: T1, mouse PD-L1 on 293F cells …; experiment: FACS competition: antibody titrated against 5 ug/mL mouse PD-1 ECD mFc on mouse PD-L1 293F cells
Method: as §2, with “Mouse PD-L1” for “Human PD-L1”, “transfected W315-293F.mPro1.C1” for “transfected W315-CHO-K1.hPro1.C11”, “of 2×10⁵” for “of 1×10⁵”

[4] = biological target: PD-L1 (target of the serum stability flow cytometry); experiment: flow cytometry binding to PD-L1 of AP3R2-1A3-z12-hIgG1 kept 0, 1, 4, 7 or 14 days in human serum at 37 C
PD-L1 (target of the serum stability flow cytometry), sequence (chain, as listed by the source): as the sequence (Q9NZQ7 19-290) above
Method: Fresh human serum was prepared from healthy donor by centrifugation. Testing antibody was mixed with serum and ensure the serum content >90% of total volume. The mix aliquots were incubated at 37° C. for 0 day, 1 day, 4 days, 7 days and 14 days, respectively. At the indicated time point the samples were quickly-frozen in liquid nitrogen and stored at −80° C. until analysis. The bindings to PD-L1 of the aliquots at above time points were evaluated by flow cytometry, respectively.

human serum Albumin = human serum Albumin (human, UniProt P02768 25-609); experiment: non-specific binding ELISA, antigen coated at 2 ug/mL
Method: Non-specific binding ELISA was performed in 96-well high binding plates (Nunc-Immuno Plate, Thermo Scientific). The plate was coated with various antigens (as listed in the left column of Table 11) at 2 μg/mL overnight at 4° C. After blocking with 2% BSA-PBS, 10 μg/ml antibodies were added to the plate and incubated for 2 hours. […] The HRP signal was detected by adding TMB peroxidase substrate and the reaction was stopped after 12 minutes using 2M HCl. The absorbance at 450 nm was read using a microplate reader (Molecular Device). All incubation steps were performed at room temperature. The plate was washed with PBST (0.05% Tween20-PBS) between steps.

[5] = biological target: T1, mouse PD-L1 on 293F cells …; experiment: FACS on mouse PD-L1 293F cells
Method: (§3) After washing with 1×PBS/1% BSA, the secondary antibody PE-labeled goat anti-human IgG was applied and incubated with cells at 4° C. for 1 hour. […] Human IgG1 and IgG4 isotype antibodies were used as negative control. The cells were then washed and resuspended in 1×PBS/1% BSA. MFI of the cells was measured by a flow cytometer (BD) and analyzed by FlowJo (version 7.6.1).

[6] = biological target: T3, cynomolgus monkey PD-L1 on 293F cells (W315-293F.cynoPro1.2A2) (cynomolgus monkey, UniProt G7PSE7 19-290); experiment: FACS affinity on cynomolgus PD-L1 cells, quantitative beads
T3 construct: whole, on cells; also called cell surface monkey PD-L1; cynoPD-L1
T3 sequence (G7PSE7 entry or part of it): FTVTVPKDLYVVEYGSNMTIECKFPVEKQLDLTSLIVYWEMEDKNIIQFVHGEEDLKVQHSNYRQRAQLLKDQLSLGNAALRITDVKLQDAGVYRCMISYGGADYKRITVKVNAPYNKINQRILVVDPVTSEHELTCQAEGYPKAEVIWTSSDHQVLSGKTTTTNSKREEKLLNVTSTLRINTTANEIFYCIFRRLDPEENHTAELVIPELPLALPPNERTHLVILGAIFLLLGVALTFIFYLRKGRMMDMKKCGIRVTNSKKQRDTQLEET
Method: as §1

[7] = biological target: T2, human PD-L1 on CHO-K1 cells …; experiment: FACS on human PD-L1 CHO-K1 cells
Method: as §3

[8] = biological target: T2, human PD-L1 on CHO-K1 cells …; experiment: FACS affinity on human PD-L1 cells, quantitative beads
Method: as §1

[9] = biological target: T3, cynomolgus monkey PD-L1 on 293F cells …; experiment: FACS on cynomolgus PD-L1 293F cells
Method: as §3

T1 sequence (Q9EP73 19-290): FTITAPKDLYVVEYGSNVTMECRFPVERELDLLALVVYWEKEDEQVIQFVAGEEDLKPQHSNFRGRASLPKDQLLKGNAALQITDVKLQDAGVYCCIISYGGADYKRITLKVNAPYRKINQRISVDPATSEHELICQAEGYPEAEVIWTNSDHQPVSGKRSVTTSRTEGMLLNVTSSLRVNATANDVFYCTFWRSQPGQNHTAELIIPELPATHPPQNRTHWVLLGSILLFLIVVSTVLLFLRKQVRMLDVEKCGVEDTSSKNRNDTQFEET

Kd [1]: 0.69 nM
IC50 [2]: 0.871 nM
IC50 [3]: 2.14 nM
EC50 (read off the curve) [4]: ~0.7 nM
binding result (human serum Albumin): no binding (tested: 10 µg/ml)
EC50 [5]: 1.24 nM
Kd [6]: 7.3 nM
EC50 [7]: 0.458 nM
Kd [8]: 0.26 nM
EC50 [9]: 2.06 nM
B1: AP3R2-1A3-z12-hIgG1 (Fc fusion)
chain: EVQLVESGGGLVQPGGSLRLSCAASGHFSNLAVNWFRQAPGKERELVAGILWSGGSTFYADSVKGRFTISRGNAENMLYLQMNSLRAEDTAVYYCNTGTNWGQGTLVTVSS
notes: VHH-Fc (hIgG1) fusion of the humanized VHH; also called W3156-AP3R2-1A3-z12-hIgG1; W3156 antibody; not shown: Fc of human IgG1
